The record followed here is US6770458 (VANDERBILT UNIVERSITY, dated 2004).

In this test the target is T1, SNF1 fused to the GAL4 DNA-binding domain (pAS2) (UniProt P04386 1-147; P06782 1-633, limits assumed).
T1 construct: Unrelated control protein in the yeast two-hybrid system
Briefly: yeast two-hybrid, β-galactosidase. As to the method: Cloning of STRAP. Northern blot and Southern blot analysis—Y190 containing pAS2-R4C was transformed with a pACT-mouse embryonic cDNA library, and transformants were subjected to selection for histidine prototrophy on SC-his, -trp, -leu plates containing 25 mM 3-aminotriazole (as described in Harper at al., *Cell* 75: 805–816 (1993) and Durfee et al., *Genes Dev.* 7:555–569 (1993)) and rare surviving colonies were then screened for β-galactosidase activity using a colony filter lift assay. Resulting clones, after second screening, were mated with Y187 containing the unrelated proteins p53, lamin, SNF1 and CDK2 fused to the GAL4 DNA-binding domain and tested for β-galactosidase activity. Positive clones were recovered from yeast and retransformed into Y190 with one of several unrelated molecules including lamin, SNF1, p53 or CDK2 in pAS2, for further testing of the specific interaction.
A color photograph was prepared showing STRAP or FKBP12.6 in pACT transformed into yeast strain Y190 containing R4C or one of several unrelated proteins including lamin. SNF1, p53 or CDK2 in pAS2. Transformants were tested for β-galactosidase activity by colony filter lift assay. A blue color indicated a positive interaction.

B1: STRAP (Serine-Threonine Kinase Receptors Associated Protein) in pACT (other)
chain: MAMRQTPLTCSGHTRPVVDLAFSGITPYGYFLISACKDGKPMLRQGDTGDWIGTFLGHKGAVWGATLNKDATKAATAAADFTAKVWDAVSGDELMTLAHKHIVKTVDFTQDSNYLLTGGQDKLLRIYDLNKPEAEPKEISGHTSGIKKALWCSDDKQILSADDKTVRLWDHATMTEVKSLNFNMSVSSMEYIPEGEILVITYGRSIAFHSAVSLEPIKSFEAPATINSASLHPEKEFLVAGGEDFKLYKYDYNSGEELESYKGHFGPIHCVRFSPDGELYASGSEDGTLRLWQTVVGKTYGLWKCVLPEEDSGELAKPKIGFPETAEEELAEEIASENSDSIYSSTPEVKA
notes: Yeast two-hybrid prey from a pACT mouse embryonic cDNA library (1.6 kb cDNA); also called STRAP clone; not shown: fusion partner encoded by the pACT library vector
For the molecule B1, the binding result is listed as “no binding”.
